In patent US7951775B2, “Methods and pharmaceutical compositions for GnRH-I and GnRH-II modulation of T-cell activity, adhesion, migration and extravasation” (priority 2001, dated 2011):

B1: GnRH-II: unique ten amino acid long neuropeptide, 70% homologous in peptide structure to GnRH-I, encoded by its own gene (peptide)
peptide: QHWSHGWYPGGKRALSSAQDPQNALRPPGRALDTAAGSPVQTAHGLPSDALAPLDDSMPWEGRTTAQWSLHRKRHLARTLLTAAREPRPAPPSSNKV

How the values were obtained:
EL-4 T-lymphoma cells = assay: Double immunofluorescence staining for 67 kDa LR and TCRαβ on EL-4 cells; format: cell-based, mouse; conditions: 10 nM, vs untreated EL-4 cells
Description: Normal human T-cells, isolated from fresh peripheral blood lymphocytes, or EL-4 T-lymphocyte cells were subjected to double immunofluorescence staining, using a mouse monoclonal anti-67 kDa LR antibody (100 μl of 1:20 dilution per 1×10^6 cells/tube; 30 minutes on ice), or normal mouse sera for control. The cells were then stained with an FITC-conjugated goat anti-mouse IgG (100 μl of 1:100 dilution), and PE-conjugated mouse anti-human TCR αβ mAb (2 μl of stock). Cells that were stained only with the second and third antibodies served as additional negative controls. Fluorescence profiles were recorded in a FACSORT.
Normal syngeneic C57BL/6 female recipient mice were then subjected to 300 rad total body irradiation, and several hours later inoculated I.P with 5×10^6 cells/mouse of either untreated or GnRH-treated EL-4 lymphoma cells. In parallel, samples from the treated and GnRH inoculated EL-4 cells were tested by double immunofluorescence (as described above) for the level of their 67 kD LR and TCRαβ. […] Following further dilution in PBS for the kidney (1:3) and liver (1:10), the number of fluorescent cells, as well as the total number of cells in each tube, were counted by flow cytometry (FACSORT).

normal human T-cells [1] = assay: Double immunofluorescence staining (FACS) for surface 67 kDa laminin receptor and TCR; format: cell-based; conditions: for 67 kDa LR and TCR positive (double positive) cell population: 10 nM, 48 hours, 37° C., untreated 35.7%; for surface expression of the 67 kDa LR, in words: vs untreated normal human T-cells
Description: Normal human T-cells, isolated from fresh peripheral blood lymphocytes, or EL-4 T-lymphocyte cells were subjected to double immunofluorescence staining, using a mouse monoclonal anti-67 kDa LR antibody (100 μl of 1:20 dilution per 1×10^6 cells/tube; 30 minutes on ice), or normal mouse sera for control. The cells were then stained with an FITC-conjugated goat anti-mouse IgG (100 μl of 1:100 dilution), and PE-conjugated mouse anti-human TCR αβ mAb (2 μl of stock). Cells that were stained only with the second and third antibodies served as additional negative controls. Fluorescence profiles were recorded in a FACSORT. To determine whether GnRH-II and GnRH-I trigger not only the gene transcription but also the surface expression of the 67 kDa LR, normal human T-cells were treated with either GnRH-II or GnRH-I for 18-66 h and subjected to double immunofluorescence staining using a monoclonal antibody (mAb) that is specific for the 67 kDa LR, and a phycoerythrin (PE)-conjugated anti-TCRαβ mAb (to confirm the T-cell origin of the cells). FIGS. 2A-2C show the staining for the untreated, GnRH-I treated and GnRH-II treated T-cells, respectively. The FACS profiles can be interpreted by division according to four categories: 1. Negative staining for both mAbs (double negative, lower left quadrant); 2. Single positive staining only with the anti-LR mAb (lower right quadrant), 3. Single positive staining only with the anti-TCR mAb (upper left quadrant); 4. Double positive staining with both mAbs (upper right quadrant). […] In different experiments, each using freshly isolated T-cells from a different human donor, both GnRH II and GnRH I repeatedly elevated the laminin receptor expression level, but the magnitude of elevation varied within a range of 6-40%. Such variations between T-cell populations originating from different donors are often observed in respect to various T-cell features and functions.

normal human T-cells [2] = assay: Double immunofluorescence staining for VLA-6 laminin-binding integrin and TCR; format: cell-based; conditions: untreated cells about 75% double positive; data not shown
Source text: Finally, the possibility that the stimulation of normal human T-cells by either GnRH-I, GnRH-II or anti-CD3+ anti-CD28 mAbs, elevates not only the non-integrin 67 kDa LR but also the expression level of the VLA-6 laminin-binding integrin (known to be expressed on T-cells) was investigated. […] Thus stimulation by GnRH-II and GnRH-I (as well as TCR-activation) primarily increases-the-protein surface expression of the non-integrin 67 kDa LR, but not of the VLA-6 laminin binding integrin.

[3] = test system: mouse antigen-specific T cells; assay: Atlas mouse cDNA expression array of GnRH-II treated T-cells; format: cell-based
Description: Anti-MBP 87-99 T-cell lines were established from lymph nodes of SJI/J mice as described^23 and analyzed for their specificity to MBP 87-99 peptide in a proliferation assay.
Poly A+RNA was extracted from the mouse anti-MBP 87-99 cell line before and after treatment with 10 nM GnRH-II for 24 hours, using the ATLAS Pure Total RNA Labeling System (Clontech Laboratories, Inc. Palo Alto, Calif.) according to manufacturers recommendations. Following DNase treatment, ^32P-labeled cDNA was prepared from poly A+ RNA preparations that were prepared from either untreated or GnRH-II treated mouse T-cells. Hybridizations to the ATLAS Mouse cDNA Expression Arrays membranes (Catalog No. PT3140-1, Clontech Laboratories), were performed according to the user manual, and the expression pattern was visualized by autoradiography.
Poly A+ RNA was prepared from both GnRH-II-treated and untreated cells and reverse transcribed to ^32P-labeled cDNA. Using an Atlas cDNA expression array (i.e. a positively charged nylon membrane spotted with 1200 different cDNAs) for identification of effected genes, the reverse transcribed products were characterized by hybridization to the atlas membranes. The differential pattern of expression between untreated cells and GnRH-II-treated cells was visualized by autoradiography (FIGS. 1A and 1B).

Molecule	surface level of 67 kDa LR on TCR αβ+ EL-4 cells (EL-4 T-lymphoma cells)	67 kDa LR and TCR positive (double positive) cell population (normal human T-cells [1]) [%]	surface expression of the 67 kDa LR, in words (normal human T-cells [1])	expression level of VLA-6 laminin-binding integrin (normal human T-cells [2])	expression of mRNA encoding non-integrin 67 kDa laminin receptor ([3]; 10 nM, 24 hours, resting mouse antigen-specific T-cells, vs untreated cells)	transcription of other genes including house-keeping gene nucleoside diphosphate kinase B ([3]; 10 nM, 24 hours, vs untreated cells)	synthesis of CD4 antigen, Cyclin D2 and thymus cell antigen 1 genes (changed by antigenic stimulation) ([3]; GnRH-II alone 10 nM, data not shown)
pGlu-His-Trp-Ser-Tyr-Gly-Leu-Arg-Pro-Gly-NH2 [GnRH-I]	increases	72.4	significantly increased	unaffected			
B1	increases	74.3	significantly increased	unaffected	induced the over expression	not affected	did not affect
